Patent publication US20190016816A1 (APTEVO RESEARCH AND DEVELOPMENT, published 2019)

T1: cynomolgus 5T4 on cells (cynomolgus macaque, UniProt Q4R8Y9 35-420)
T1 construct: whole, on cells; also called CHO-K1/cynomolgus 5T4 transfectants
T1 sequence (looked up): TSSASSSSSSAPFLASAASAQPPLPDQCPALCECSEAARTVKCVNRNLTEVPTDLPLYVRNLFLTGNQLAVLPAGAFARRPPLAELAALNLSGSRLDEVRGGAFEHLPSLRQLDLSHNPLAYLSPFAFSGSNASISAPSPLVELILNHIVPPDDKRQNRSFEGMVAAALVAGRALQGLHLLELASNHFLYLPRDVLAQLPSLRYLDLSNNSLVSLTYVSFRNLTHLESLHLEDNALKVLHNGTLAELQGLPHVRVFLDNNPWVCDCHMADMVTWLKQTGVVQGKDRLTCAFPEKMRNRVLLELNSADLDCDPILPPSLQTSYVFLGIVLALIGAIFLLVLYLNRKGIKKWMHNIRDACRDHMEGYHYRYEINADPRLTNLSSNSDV

T2: human 5T4 on cells (human, UniProt Q13641 32-420)
T2 construct: also called TPBG; hu5T4
T2 sequence: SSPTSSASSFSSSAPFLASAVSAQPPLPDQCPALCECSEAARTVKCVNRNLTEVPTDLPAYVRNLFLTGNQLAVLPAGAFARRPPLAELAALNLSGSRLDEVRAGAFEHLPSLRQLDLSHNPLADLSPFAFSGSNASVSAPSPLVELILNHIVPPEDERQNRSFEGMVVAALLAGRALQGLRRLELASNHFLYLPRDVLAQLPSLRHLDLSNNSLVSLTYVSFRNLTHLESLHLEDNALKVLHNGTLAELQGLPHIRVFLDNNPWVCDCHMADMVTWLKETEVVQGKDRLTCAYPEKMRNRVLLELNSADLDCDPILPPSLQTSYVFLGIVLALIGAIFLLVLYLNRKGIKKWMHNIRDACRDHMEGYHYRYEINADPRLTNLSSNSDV

B1: ALG.APV-187 (bispecific antibody)
chain: EVQLLESGGGLVQPGGSLRLSCAASGFTFSHGSMYWVRQAPGKGLEWVSSISSGSGSTYYADSVKGRFTISHDNSKNTLYLQMNSLRAEDTAVYYCARSSYYGSYYSIDYWGQGTLVTVSSGGGGSGGGGSGGGGSGGGGSDIQMTQSPSSLSASVGDRVTITCRASQSISSYLNWYQQKPGKAPKLLIYAASSLQSGVPSRFSGSGSGTDFTLTISSLQPEDFATYYCQQYYDNLPTFGQGTKLEIKSSEPKSSDKTHTCPPCPAPEAAGAPSVFLFPPKPKDTLMISRTPEVTCVVVDVSHEDPEVKFNWYVDGVEVHNAKTKPREEQYNSTYRVVSVLTVLHQDWLNGKEYKCAVSNKALPAPIEKTISKAKGQPREPQVYTLPPSRDELTKNQVSLTCLVKGFYPSDIAVEWESNGQPENNYKTTPPVLDSDGSFFLYSKLTVDKSRWQQGNVFSCSVMHEALHNHYTQKSLSLSPGSGGGGSGGGGSGGGGSPSEVQLLESGGGLVQPGGSLRLSCAASGFTFSSYAMSWVRQAPGKCLEWVSAISGSGGSTYYADSVKGRFTISRDNSKNTLYLQMNSLRAEDTAVYYCARYYGGYYSAWMDYWGQGTLVTVSSGGGGSGGGGSGGGGSGGGGSDIQMTQSPSSLSASVGDRVTITCRASQSISSFLNWYQQKPGKAPKLLIYAASSLQSGVPSRFSGSGSGTDFTLTISSLQPEDSATYYCQQTYGYLHTFGCGTKLEIKR
notes: Optimized ADAPTIR scFv-Fc-scFv homodimer with stabilizing disulfide in the 1210 scFv
B2: biotinylated ALG.APV-210 (bispecific antibody)
chain: EVQLLESGGGLVQPGGSLRLSCAASGFTFSHGSMYWVRQAPGKGLEWVSSISSGSGSTYYADSVKGRFTISHDNSKNTLYLQMNSLRAEDTAVYYCARSSYYGSYYSIDYWGQGTLVTVSSGGGGSGGGGSGGGGSGGGGSDIQMTQSPSSLSASVGDRVTITCRASQSISSYLNWYQQKPGKAPKLLIYAASSLQSGVPSRFSGSGSGTDFTLTISSLQPEDFATYYCQQYYDNLPTFGQGTKLEIKEPKSSDKTHTCPPCPAPEAAGAPSVFLFPPKPKDTLMISRTPEVTCVVVDVSHEDPEVKFNWYVDGVEVHNAKTKPREEQYNSTYRVVSVLTVLHQDWLNGKEYKCAVSNKALPAPIEKTISKAKGQPREPQVYTLPPSRDELTKNQVSLTCLVKGFYPSDIAVEWESNGQPENNYKTTPPVLDSDGSFFLYSKLTVDKSRWQQGNVFSCSVMHEALHNHYTQKSLSLSPGSGGGGSGGGGSGGGGSPSEVQLLESGGGLVQPGGSLRLSCAASGFTFSSYAMSWVRQAPGKCLEWVSAISGSGGSTYYADSVKGRFTISRDNSKNTLYLQMNSLRAEDTAVYYCARYYGGYYSAWMDYWGQGTLVTVSSGGGGSGGGGSGGGGSGGGGSDIQMTQSPSSLSASVGDRVTITCRASQSISSFLNWYQQKPGKAPKLLIYAASSLQSGVPSRFSGSGSGTDFTLTISSLQPEDSATYYCQQTYGYLHTFGCGTKLEIKR
notes: also called ALG.APV-210 (biotinylated for FACS detection)

Experiments:
cynomolgus 5T4 on cells = molecular target: T1, cynomolgus 5T4 on cells; test: flow cytometry, CHO-K1 cells expressing cynomolgus 5T4, labelled anti-human IgG secondary, MFI (median)
Procedure: Binding studies were performed by standard flow cytometry-based staining procedures two cell lines expressing 5T4:CHO-K1 cells (obtained from Alligator) transduced with human or cynomolgus macaque 5T4 and SKOV-3 human ovarian adenocarcinoma cells which express (human) 5T4. All labeling and washes were performed in U-bottom 96-well plates in saline buffer with 0.1% BSA and 2 mM EDTA. Cell were plated at approximately 100,000 cells per well and incubated with a range of 100 nM to 0.05 nM concentrations of test molecules in […], for 30 minutes on ice. Cells were washed three times then incubated for another 30 min on ice with fluorescently-labeled secondary polyclonal antibody, F(ab′)² goat anti-human IgG (Jackson ImmunoResearch Laboratories). The cells were then washed twice and the samples acquired in a BD LSRII or a Symphony A3 flow cytometer. The sample files were analyzed using FlowJo software; the mean fluorescence intensity (MFI-mean) or median fluorescence intensity (MFI-median) of the live population of cells in each well was calculated after gating on live cells (forward vs side scatter). Nonlinear regression analysis to determine EC₅₀ values was performed in GraphPad Prism 6® graphing and statistics software.

human CD137 on cells = molecular target: T3, human CD137 on cells (human, UniProt Q07011 24-255); test: flow cytometry, MFI of all CD3+CD8+ cells gated from CD3-stimulated human PBMC
T3 construct: also called 4-1BB; TNFRSF9 (CHO-K1/human CD137 cells)
T3 sequence (Q07011 24-255 limits assumed): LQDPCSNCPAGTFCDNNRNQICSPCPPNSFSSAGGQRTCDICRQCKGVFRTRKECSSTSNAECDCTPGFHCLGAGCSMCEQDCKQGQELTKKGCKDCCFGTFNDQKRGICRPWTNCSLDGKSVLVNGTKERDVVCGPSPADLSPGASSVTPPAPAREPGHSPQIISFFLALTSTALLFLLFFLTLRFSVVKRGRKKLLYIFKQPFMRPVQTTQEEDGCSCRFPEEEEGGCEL
Procedure: Following 48 h of incubation with or without CD3, human and cynomolgus PBMC were harvested, pooled, recounted and diluted in FACS buffer (PBS+0.5% BSA, 0.05% NaN₃) to a concentration of 5×10⁶ cells/mL. 50 μL (0.25×10⁶ cells) of cell solution was added to a 96-well FACS staining plate (Falcon #351190). Following 10 min of Fc-blocking in RT using Beriglobin (hIgG, 200 μg/mL), cells were washed in FACS buffer and then incubated for 1 h in 4° C. with 100 μL of the biotinylated ALG.APV-210 or negative control. The antibodies were added in a serial dilution starting either at 5 μg/mL titrating down in a 12 step ⅓ dilution down to […] (exp 1) or 1 μg/mL titrating down in a 12 step ½ dilution down to 0.0005 μg/mL (exp 2). […] Cells were analysed for ALG.APV-210 binding using flow cytometry by gating on viable, single cells expressing CD3 and CD8. MFI values (FMO subtracted) from 2 independent experiments as well as normalized pooled data from 2 experiments and EC₅₀-values were determined and plotted using GraphPad Prism 7, non-linear regression log (agonist) vs. normalized response—variable slope, n=6 donors/group.

human 5T4 on cells = molecular target: T2, human 5T4 on cells; test: flow cytometry, JAR cells, streptavidin-PE, normalized MFI of 2 pooled experiments
Procedure: Prior to the FACS staining, all cell lines were characterized for their 5T4 expression levels using a receptor density kit (Quantum Simply Cellular, anti-human IgG, Bangs Laboratories, Inc). Adherent cell lines were cultured according to their supplier's instructions and were harvested from their cell culture flasks using Trypsin/EDTA, counted in R10 medium in a Burker chamber, and diluted in FACS buffer (PBS+0.5% BSA, 0.05% NaN₃) to a concentration of 4×10⁶ cells/mL. 50 μL (0.20×10⁶) of cell solution was added to a 96-well FACS staining plate (Falcon #351190). Cells were incubated for 20 min in 4° C. with 50 μL of the biotinylated ALG.APV-210 (2× final concentration). The antibodies were added in a serial dilution starting at 20 μg/mL titrating down in a 12 step ½ dilution down to 0.010 μg/mL. Following 2× washing with FACS buffer, cells were incubated for 30 min in 4° C. with 100 μL of a secondary antibody (streptavidin-PE, BD #554061, diluted 1/500). […] Cells were analysed for ALG.APV-210 binding using flow cytometry (FACSVerse) by gating on single cells. MFI values (secondary antibody only subtracted) from 1 out of 2 independent experiments, as well as normalized data and EC₅₀-values of pooled data from 2 experiments were determined and plotted using GraphPad Prism 7, non-linear regression log (agonist) vs. normalized response—variable slope.

Row | Binder | EC50 (cynomolgus 5T4 on cells) | Maximum MFI (cynomolgus 5T4 on cells) | EC50 (human CD137 on cells) | EC50 (human 5T4 on cells)
1 | B1 | 21 nM | 25400 |  | 
2 | B2 |  |  | 0.235 nM | 9 nM
